This experiment addresses T1, human BCMA (human, UniProt Q02223 1-184).
T1 construct: whole, on cells; also called hBCMA; tumor necrosis factor receptor superfamily member 17
T1 sequence (looked up): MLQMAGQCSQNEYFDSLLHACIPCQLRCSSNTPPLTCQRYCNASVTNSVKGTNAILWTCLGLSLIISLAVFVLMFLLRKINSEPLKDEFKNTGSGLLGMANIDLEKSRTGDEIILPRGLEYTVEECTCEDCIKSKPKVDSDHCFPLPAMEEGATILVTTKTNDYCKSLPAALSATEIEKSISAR
In words: flow cytometry (FACS) on NCI-H929 cells.

Results on 28 molecules are retold here after patent US20240050583A1 (HARBOUR BIOMED SHANGHAI, published 2024).

B1: HCAb PR004433 (antibody, human IgG1, V domains shown)
VH: EVQLVETGGGLIQPGGSLRLSCAASGFTVSDSYMTWVRQAPGKGLEWVSVIFSGGRTYYSDSVKGRFTISRDNAKNTLYLQMNSLRAEDTALYYCARRNYDDTRGTDVFDIWGQGTMVTVSS
notes: also called PR001046_R2_4G10; anti-BCMA HCAb antibody PR004433
On to B1, for which the binding result is listed as “binds”.

B2: HCAb PR006468 (antibody, V domains shown)
VH: EVQLVETGGGLIQPGGSLRLSCAASGFTVSDSYMTWVRQAPGKGLEWVSVIFSGGRTYYSDSVKGRFTISRDNAKNTLYLQMNSLRAEDTALYYCARRNYDDTRGTDVFDIWGQGTMVTVSS
On to B2, for which the binding result is recorded as “binds”.

B3: PR006319 (antibody, V domains shown)
VH: EVQLVETGGGLIQPGGSLRLSCAASGFTVSDSYMTWVRQAPGKGLEWVSVIFSGGRTYYSDSVKGRFTISRDNAKNTLYLQMNSLRAEDTALYYCARRNYDDTRGTDVFDIWGQGTMVTVSS
notes: also called PR004433 variant molecule; Hinge10_3
On to B3, for which the binding result was “binds”.

B4: PR006314 (antibody, V domains shown)
VH: EVQLVETGGGLIQPGGSLRLSCAASGFTVSDSYMTWVRQAPGKGLEWVSVIFSGGRTYYSDSVKGRFTISRDNAKNTLYLQMNSLRAEDTALYYCARRNYDDTRGTDVFDIWGQGTMVTVSS
notes: also called PR004433 variant molecule; Hinge8_18
As for B4, the binding result was “binds”.

B5: PR006468-ADC (antibody, V domains shown)
VH: EVQLVETGGGLIQPGGSLRLSCAASGFTVSDSYMTWVRQAPGKGLEWVSVIFSGGRTYYSDSVKGRFTISRDNAKNTLYLQMNSLRAEDTALYYCARRNYDDTRGTDVFDIWGQGTMVTVSS
modifications: mc-vc-PAB-MMAE coupled to Cys1 (first cysteine) of the mouse IgG2c hinge region (90.8% of the site coupled)
notes: Purified coupling product of PR006468 with mc-vc-PAB-MMAE, DAR=2 component 95.5%; also called coupling product PR006468-ADC
For B5, the binding result is “binds”.

B6: PR006316 (antibody, V domains shown)
VH: EVQLVETGGGLIQPGGSLRLSCAASGFTVSDSYMTWVRQAPGKGLEWVSVIFSGGRTYYSDSVKGRFTISRDNAKNTLYLQMNSLRAEDTALYYCARRNYDDTRGTDVFDIWGQGTMVTVSS
notes: also called PR004433 variant molecule; Hinge9_5
For the molecule B6, the binding result is reported as “binds”.

B7: PR004433-PROTAC (antibody, human IgG1, V domains shown)
VH: EVQLVETGGGLIQPGGSLRLSCAASGFTVSDSYMTWVRQAPGKGLEWVSVIFSGGRTYYSDSVKGRFTISRDNAKNTLYLQMNSLRAEDTALYYCARRNYDDTRGTDVFDIWGQGTMVTVSS
modifications: BRD4 protein degrading agent (PROTAC GNE-987 with a disulfide-containing linker) coupled by a disulfide bond to cysteine, Cys-220 site (Eu numbering) as the filing aims
notes: Coupling product without HIC purification; DAR=2 component 66.4%, naked antibody 28.4%; also called coupling product PR004433-PROTAC
In the case of B7, the binding result is listed as “binds”.

B8: PR006042 (antibody, V domains shown)
VH: EVQLVETGGGLIQPGGSLRLSCAASGFTVSDSYMTWVRQAPGKGLEWVSVIFSGGRTYYSDSVKGRFTISRDNAKNTLYLQMNSLRAEDTALYYCARRNYDDTRGTDVFDIWGQGTMVTVSS
notes: also called PR004433 variant molecule; Hinge6_18
In the case of B8, the binding result is “binds”.

B9: PR006031 (antibody, V domains shown)
VH: EVQLVETGGGLIQPGGSLRLSCAASGFTVSDSYMTWVRQAPGKGLEWVSVIFSGGRTYYSDSVKGRFTISRDNAKNTLYLQMNSLRAEDTALYYCARRNYDDTRGTDVFDIWGQGTMVTVSS
notes: also called PR004433 variant molecule; Hinge3_5
In the case of B9, the binding result is on record as “binds”.

B10: PR006310 (antibody, V domains shown)
VH: EVQLVETGGGLIQPGGSLRLSCAASGFTVSDSYMTWVRQAPGKGLEWVSVIFSGGRTYYSDSVKGRFTISRDNAKNTLYLQMNSLRAEDTALYYCARRNYDDTRGTDVFDIWGQGTMVTVSS
notes: also called PR004433 variant molecule; Hinge7_2
For the molecule B10, the binding result is listed as “binds”.

B11: PR006036 (antibody, V domains shown)
VH: EVQLVETGGGLIQPGGSLRLSCAASGFTVSDSYMTWVRQAPGKGLEWVSVIFSGGRTYYSDSVKGRFTISRDNAKNTLYLQMNSLRAEDTALYYCARRNYDDTRGTDVFDIWGQGTMVTVSS
notes: also called PR004433 variant molecule; Hinge4_15
With B11, the binding result is “binds”.

B12: PR006320 (antibody, V domains shown)
VH: EVQLVETGGGLIQPGGSLRLSCAASGFTVSDSYMTWVRQAPGKGLEWVSVIFSGGRTYYSDSVKGRFTISRDNAKNTLYLQMNSLRAEDTALYYCARRNYDDTRGTDVFDIWGQGTMVTVSS
notes: also called PR004433 variant molecule; Hinge10_5
Regarding B12, the binding result is “binds”.

B13: PR006039 (antibody, V domains shown)
VH: EVQLVETGGGLIQPGGSLRLSCAASGFTVSDSYMTWVRQAPGKGLEWVSVIFSGGRTYYSDSVKGRFTISRDNAKNTLYLQMNSLRAEDTALYYCARRNYDDTRGTDVFDIWGQGTMVTVSS
notes: also called PR004433 variant molecule; Hinge5_13
Turning to B13, the binding result is listed as “binds”.

B14: PR006041 (antibody, V domains shown)
VH: EVQLVETGGGLIQPGGSLRLSCAASGFTVSDSYMTWVRQAPGKGLEWVSVIFSGGRTYYSDSVKGRFTISRDNAKNTLYLQMNSLRAEDTALYYCARRNYDDTRGTDVFDIWGQGTMVTVSS
notes: also called PR004433 variant molecule; Hinge6_15
Take B14: the binding result is reported as “binds”.

B15: PR006317 (antibody, V domains shown)
VH: EVQLVETGGGLIQPGGSLRLSCAASGFTVSDSYMTWVRQAPGKGLEWVSVIFSGGRTYYSDSVKGRFTISRDNAKNTLYLQMNSLRAEDTALYYCARRNYDDTRGTDVFDIWGQGTMVTVSS
notes: also called PR004433 variant molecule; Hinge9_7
Take B15: the binding result was “binds”.

B16: PR006321 (antibody, V domains shown)
VH: EVQLVETGGGLIQPGGSLRLSCAASGFTVSDSYMTWVRQAPGKGLEWVSVIFSGGRTYYSDSVKGRFTISRDNAKNTLYLQMNSLRAEDTALYYCARRNYDDTRGTDVFDIWGQGTMVTVSS
notes: also called PR004433 variant molecule; Hinge10_7
For the molecule B16, the binding result is recorded as “binds”.

B17: PR006318 (antibody, V domains shown)
VH: EVQLVETGGGLIQPGGSLRLSCAASGFTVSDSYMTWVRQAPGKGLEWVSVIFSGGRTYYSDSVKGRFTISRDNAKNTLYLQMNSLRAEDTALYYCARRNYDDTRGTDVFDIWGQGTMVTVSS
notes: also called PR004433 variant molecule; Hinge9_14
For the molecule B17, the binding result was “binds”.

B18: PR006034 (antibody, V domains shown)
VH: EVQLVETGGGLIQPGGSLRLSCAASGFTVSDSYMTWVRQAPGKGLEWVSVIFSGGRTYYSDSVKGRFTISRDNAKNTLYLQMNSLRAEDTALYYCARRNYDDTRGTDVFDIWGQGTMVTVSS
notes: also called PR004433 variant molecule; Hinge4_1
As to B18, the binding result was “binds”.

B19: PR006032 (antibody, V domains shown)
VH: EVQLVETGGGLIQPGGSLRLSCAASGFTVSDSYMTWVRQAPGKGLEWVSVIFSGGRTYYSDSVKGRFTISRDNAKNTLYLQMNSLRAEDTALYYCARRNYDDTRGTDVFDIWGQGTMVTVSS
notes: also called PR004433 variant molecule; Hinge3_6
For B19, the binding result is on record as “binds”.

B20: PR006040 (antibody, V domains shown)
VH: EVQLVETGGGLIQPGGSLRLSCAASGFTVSDSYMTWVRQAPGKGLEWVSVIFSGGRTYYSDSVKGRFTISRDNAKNTLYLQMNSLRAEDTALYYCARRNYDDTRGTDVFDIWGQGTMVTVSS
notes: also called PR004433 variant molecule; Hinge6_4
For the molecule B20, the binding result was “binds”.

B21: PR006035 (antibody, V domains shown)
VH: EVQLVETGGGLIQPGGSLRLSCAASGFTVSDSYMTWVRQAPGKGLEWVSVIFSGGRTYYSDSVKGRFTISRDNAKNTLYLQMNSLRAEDTALYYCARRNYDDTRGTDVFDIWGQGTMVTVSS
notes: also called PR004433 variant molecule; Hinge4_6
Take B21: the binding result is reported as “binds”.

B22: PR006315 (antibody, V domains shown)
VH: EVQLVETGGGLIQPGGSLRLSCAASGFTVSDSYMTWVRQAPGKGLEWVSVIFSGGRTYYSDSVKGRFTISRDNAKNTLYLQMNSLRAEDTALYYCARRNYDDTRGTDVFDIWGQGTMVTVSS
notes: also called PR004433 variant molecule; Hinge8_20
On to B22, for which the binding result is “binds”.

B23: PR006038 (antibody, V domains shown)
VH: EVQLVETGGGLIQPGGSLRLSCAASGFTVSDSYMTWVRQAPGKGLEWVSVIFSGGRTYYSDSVKGRFTISRDNAKNTLYLQMNSLRAEDTALYYCARRNYDDTRGTDVFDIWGQGTMVTVSS
notes: also called PR004433 variant molecule; Hinge5_12
Consider B23, for which the binding result is on record as “binds”.

B24: PR006313 (antibody, V domains shown)
VH: EVQLVETGGGLIQPGGSLRLSCAASGFTVSDSYMTWVRQAPGKGLEWVSVIFSGGRTYYSDSVKGRFTISRDNAKNTLYLQMNSLRAEDTALYYCARRNYDDTRGTDVFDIWGQGTMVTVSS
notes: also called PR004433 variant molecule; Hinge8_8
On to B24, for which the binding result is “binds”.

B25: PR006312 (antibody, V domains shown)
VH: EVQLVETGGGLIQPGGSLRLSCAASGFTVSDSYMTWVRQAPGKGLEWVSVIFSGGRTYYSDSVKGRFTISRDNAKNTLYLQMNSLRAEDTALYYCARRNYDDTRGTDVFDIWGQGTMVTVSS
notes: also called PR004433 variant molecule; Hinge7_19
Turning to B25, the binding result is listed as “binds”.

B26: PR006033 (antibody, V domains shown)
VH: EVQLVETGGGLIQPGGSLRLSCAASGFTVSDSYMTWVRQAPGKGLEWVSVIFSGGRTYYSDSVKGRFTISRDNAKNTLYLQMNSLRAEDTALYYCARRNYDDTRGTDVFDIWGQGTMVTVSS
notes: also called PR004433 variant molecule; Hinge3_18
B26: the binding result is on record as “binds”.

B27: PR006037 (antibody, V domains shown)
VH: EVQLVETGGGLIQPGGSLRLSCAASGFTVSDSYMTWVRQAPGKGLEWVSVIFSGGRTYYSDSVKGRFTISRDNAKNTLYLQMNSLRAEDTALYYCARRNYDDTRGTDVFDIWGQGTMVTVSS
notes: also called PR004433 variant molecule; Hinge5_2
With B27, the binding result was “binds”.

B28: PR005744-ADC (bispecific antibody, human IgG1, kappa)
chain 1: QVQLVESGGGVVQPGRSLRLSCAATGFTFSSYGMYWVRQAPGKGLEWVAAIWNDGSNNYYADSVKGRFTISRDDSKNTLNLQMNSLRAEDTAMYYCARDRLPMASLRYFDWLGVMDAWGQGTSVTVSSASTKGPSVFPLAPSSKSTSGGTAALGCLVKDYFPEPVTVSWNSGALTSGVHTFPAVLQSSGLYSLSSVVTVPSSSLGTQTYICNVNHKPSNTKVDKKVEPKSC
chain 2: not shown
modifications: mc-vc-PAB-MMAE coupled to Cys-220 (Eu numbering) of the linker peptide (99.07% of the site coupled)
notes: Coupling product of PR005744 with mc-vc-PAB-MMAE; also called coupling product PR005744-ADC
As for B28, the binding result is “binds”.
